The RNAGym collection of RNA variant scans (doi:10.1093/nar/gkz1192)

B1: CPEB3 Ribozyme (parent)
chain: UAACAGGGGGCCACAGCAGAAGCGUUCACGUCGCAGCCCCUGUCAGAUUCUGGUGAAUCUGCGAAUUCUGCUGUAUAUCUC

Variants of: B1
Assay: self-cleavage, relative activity (ratio to wild type); higher = more cleavage; in vitro, sequencing
How it was run: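 After error-prone PCR and barcoding, CPEB3 ribozyme mutant libraries were transcribed with T7 RNA polymerase at 37°C for 5 hours, then given 15 min with DNase I before an EDTA stop, and they cleaved during both steps. Reverse transcription with template switching preceded Illumina sequencing. Relative activity divides a variant's cleaved/total read fraction by the unmutated ribozyme's. At least 5 reads were required per variant, and three batches were averaged.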

Compared with U60A U66A, U60A U66C is higher in self-cleavage: 0.18 for the first, 0.34 for the second.

Compared with U58C A65G, U58C A65C is lower in self-cleavage: 0.27 for the first, 0.14 for the second.

First: U58C A65U
Second: C59U A77G
The self-cleavage of the first is lower: 0.21 for the first, 0.94 for the second.

Compared with U60A G70A, U58A U78C is lower in self-cleavage: 0.52 for the first, 0.42 for the second.

Compared with U58G U69C, U60C C68A is higher in self-cleavage: 0.2 for the first, 0.32 for the second.

First: U60C C68G
Second: C59U U76C
The self-cleavage of the first is lower: 0.31 for the first, 0.97 for the second.

Compared with U60G C62A, U60C G61C is lower in self-cleavage: 0.34 for the first, 0.29 for the second.

First: U60C G61U
Second: U60A C68G
The self-cleavage of the first is lower: 0.26 for the first, 0.43 for the second.

Compared with U58C A64U, U58C A64G is higher in self-cleavage: 0.33 for the first, 0.36 for the second.

U60A C62U and U58C U60A are the same in self-cleavage: 0.26 for the first, 0.26 for the second.

Compared with U58C U60C, U58C U60G is lower in self-cleavage: 0.3 for the first, 0.24 for the second.

Compared with U58A U74C, U58A U74A is lower in self-cleavage: 0.67 for the first, 0.6 for the second.

Going from U58G A65G to U60A U67A, the self-cleavage rises from 0.1 to 0.42.

First: U60A U67G
Second: U60A U67C
The self-cleavage of the first is higher: 0.79 for the first, 0.37 for the second.

Compared with U58G U76A, U58C G73A is higher in self-cleavage: 0.51 for the first, 1.24 for the second.

First: U60C
Second: U60A
The self-cleavage of the first is lower: 0.54 for the first, 0.57 for the second.

Compared with U60G, C59A G70U is lower in self-cleavage: 0.48 for the first, 0.13 for the second.

Going from U60A C79A to U60A C79U, the self-cleavage falls from 0.88 to 0.69.

Going from A57G U78G to A57G U78A, the self-cleavage falls from 1.12 to 0.97.

Compared with A57G U78C, U60C U72C is lower in self-cleavage: 0.83 for the first, 0.53 for the second.

First: U60C U72A
Second: U60C U72G
The self-cleavage of the first is lower: 0.37 for the first, 0.39 for the second.

Going from C59G A75U to A57U G70U, the self-cleavage falls from 0.28 to 0.19.

First: A57U G70A
Second: A57U C79G
The self-cleavage of the first is lower: 0.38 for the first, 1.16 for the second.

Going from U60C U66A to U60C U66C, the self-cleavage falls from 0.33 to 0.29.

First: U60C U66G
Second: U58C A77C
The self-cleavage of the first is lower: 0.15 for the first, 0.26 for the second.

Compared with U58C A77G, U58C A77U is higher in self-cleavage: 0.56 for the first, 0.65 for the second.

First: C59U G73A
Second: C59U U69C
The self-cleavage of the first is higher: 1.45 for the first, 0.48 for the second.

Compared with C59U U69A, U58G U72A is lower in self-cleavage: 0.41 for the first, 0.24 for the second.

Going from U58G U72G to U58G U72C, the self-cleavage falls from 0.44 to 0.28.

Compared with C59U A64U, U60A A65U is lower in self-cleavage: 0.25 for the first, 0.21 for the second.

Going from U60A A65G to U60G U67C, the self-cleavage falls from 0.34 to 0.13.

Going from U60G U67A to U60A G63C, the self-cleavage rises from 0.26 to 0.75.

Compared with U60A G63U, U60A G63A is higher in self-cleavage: 0.53 for the first, 0.61 for the second.

Compared with U60A C71G, U60A C71A is higher in self-cleavage: 0.35 for the first, 0.39 for the second.

Compared with U60A C71U, C59A U67C is lower in self-cleavage: 0.48 for the first, 0.16 for the second.

Going from C59A U67A to C59U A65G, the self-cleavage rises from 0.26 to 0.4.

Going from U58C U74C to U58C C79U, the self-cleavage falls from 0.87 to 0.6.

Going from A57G U72G to A57G U72A, the self-cleavage falls from 1.01 to 0.62.

Compared with A57G U72C, A57U C59U is lower in self-cleavage: 1.05 for the first, 0.21 for the second.

Compared with U58C C68A, A57U U60A is higher in self-cleavage: 0.2 for the first, 0.24 for the second.

Compared with A57U U60C, A57U U69C is higher in self-cleavage: 0.27 for the first, 0.3 for the second.

First: A57U U69A
Second: A57U U69G
The self-cleavage of the first is lower: 0.4 for the first, 0.44 for the second.

Going from A57U A64U to A57U A64G, the self-cleavage rises from 0.21 to 0.75.

Compared with U58C C71U, U58C C71A is lower in self-cleavage: 0.41 for the first, 0.37 for the second.

Going from U58C U76G to U58C U76A, the self-cleavage falls from 0.69 to 0.68.

First: U58C U76C
Second: U58C G70A
The self-cleavage of the first is higher: 0.67 for the first, 0.37 for the second.

Compared with U58G U60A, U58G U60C is higher in self-cleavage: 0.18 for the first, 0.3 for the second.

Compared with U60G C71U, A57U U58G is lower in self-cleavage: 0.2 for the first, 0.1 for the second.

Compared with A57U U58C, A57U U58A is higher in self-cleavage: 0.18 for the first, 0.3 for the second.

First: U60C U74A
Second: U60C U74C
The self-cleavage of the first is higher: 0.96 for the first, 0.79 for the second.

Compared with U60C U74G, U60A G61U is lower in self-cleavage: 0.66 for the first, 0.38 for the second.

Going from U60A G61C to U58C C81A, the self-cleavage rises from 0.22 to 0.75.

Going from U58C C81G to U58C C81U, the self-cleavage falls from 0.82 to 0.68.

Compared with U58C G61U, U60G U69A is higher in self-cleavage: 0.21 for the first, 0.39 for the second.

First: U60G U69C
Second: C59G U60C
The self-cleavage of the first is higher: 0.23 for the first, 0.16 for the second.

First: U60G A77G
Second: U60G A77U
The self-cleavage of the first is higher: 0.47 for the first, 0.38 for the second.

Going from U60C G63C to U60C G63A, the self-cleavage rises from 0.54 to 0.57.

Compared with U60C G63U, U60C U78A is lower in self-cleavage: 0.58 for the first, 0.55 for the second.

Compared with U60C U78C, U58C U67A is lower in self-cleavage: 0.45 for the first, 0.28 for the second.

First: U58C U67C
Second: U60C A64C
The self-cleavage of the first is lower: 0.29 for the first, 0.61 for the second.

First: U60C A64U
Second: U60C A64G
The self-cleavage of the first is lower: 0.31 for the first, 0.36 for the second.

First: A57U A65G
Second: C59G U76A
The self-cleavage of the first is lower: 0.22 for the first, 0.47 for the second.

Going from A57U U72C to A57U U72A, the self-cleavage falls from 0.89 to 0.43.

Compared with A57U U78C, A57U U78G is higher in self-cleavage: 0.68 for the first, 0.75 for the second.

Going from A57U U78A to C59U U67C, the self-cleavage falls from 1.21 to 0.21.

Compared with C59U U67A, A57G U76G is higher in self-cleavage: 0.28 for the first, 1.08 for the second.

A57G U76A and A57G U76C are the same in self-cleavage: 1.01 for the first, 1.01 for the second.

U58C U78C and U58C U78A are the same in self-cleavage: 0.47 for the first, 0.47 for the second.

First: U58C U78G
Second: U58A C62U
The self-cleavage of the first is higher: 0.44 for the first, 0.23 for the second.

First: A57G U80C
Second: A57G U80G
The self-cleavage of the first is lower: 1 for the first, 1.12 for the second.

Compared with A57G U80A, U60C A75G is lower in self-cleavage: 1.06 for the first, 0.37 for the second.

Compared with U60C A75U, U60C A75C is higher in self-cleavage: 0.57 for the first, 0.72 for the second.

Compared with A57G U66G, U58A U69C is lower in self-cleavage: 0.53 for the first, 0.28 for the second.

Compared with U58A U69A, A57U A77U is higher in self-cleavage: 0.23 for the first, 1.01 for the second.

Going from A57U A77G to U58A G63A, the self-cleavage falls from 0.76 to 0.59.

Compared with U60C G73C, U60C G73A is higher in self-cleavage: 0.9 for the first, 1.09 for the second.

First: U60C A65C
Second: U60C A65G
The self-cleavage of the first is lower: 0.17 for the first, 0.28 for the second.

U60C A65U and U58G U80C are the same in self-cleavage: 0.27 for the first, 0.27 for the second.

Compared with U58C G63U, U58C G63A is lower in self-cleavage: 0.91 for the first, 0.51 for the second.

Compared with U58C G63C, U58G G63A is lower in self-cleavage: 0.54 for the first, 0.45 for the second.

Going from A57U U67C to A57U U67A, the self-cleavage rises from 0.22 to 0.38.

Compared with C59A U78A, C59A U78C is higher in self-cleavage: 0.22 for the first, 0.38 for the second.

First: U60G U72C
Second: U60G U72A
The self-cleavage of the first is higher: 0.32 for the first, 0.22 for the second.

Variant C59U G63A has a self-cleavage of 0.86.
